The values below come from patent publication US20080306007A1, “AGENTS FOR PROPHYLAXIS OR TREATMENT OF NEUROLOGICAL RELATED DISEASES AND CONDITIONS” (Newcastle Innovation Limited, priority 2007, published 2008).

The target in assay [1] is phospho-dynamin I (native, phosphorylated in vivo, from rat brain synaptosomes) (rat) (UniProt P21575). Briefly: GST pull-down from 32Pi-labelled synaptosome lysate, 150 mM NaCl, quantitative analysis of autoradiograph against protein.
Assay [2] addresses amphiphysin I (native, from rat brain lysate) (rat) (UniProt O08838). Briefly: peptide competition in GST-DynI-PRD pull-down from rat brain lysate; the filing later calls this an experimental artefact.
The target of assay [3] is dynamin I (native, from rat brain synaptosomes; total pool) (rat) (UniProt P21575). Briefly: GST pull-down from synaptosome lysate without salt.
For assay [4] the target is unchanged. Briefly: sequential GST pull-downs from synaptosome lysate; molar ratio GST-AmphI-SH3:dynamin above 2:1.

phospho-dynamin I (native, phosphorylated in vivo, from rat brain synaptosomes) (rat), sequence (P21575 whole entry): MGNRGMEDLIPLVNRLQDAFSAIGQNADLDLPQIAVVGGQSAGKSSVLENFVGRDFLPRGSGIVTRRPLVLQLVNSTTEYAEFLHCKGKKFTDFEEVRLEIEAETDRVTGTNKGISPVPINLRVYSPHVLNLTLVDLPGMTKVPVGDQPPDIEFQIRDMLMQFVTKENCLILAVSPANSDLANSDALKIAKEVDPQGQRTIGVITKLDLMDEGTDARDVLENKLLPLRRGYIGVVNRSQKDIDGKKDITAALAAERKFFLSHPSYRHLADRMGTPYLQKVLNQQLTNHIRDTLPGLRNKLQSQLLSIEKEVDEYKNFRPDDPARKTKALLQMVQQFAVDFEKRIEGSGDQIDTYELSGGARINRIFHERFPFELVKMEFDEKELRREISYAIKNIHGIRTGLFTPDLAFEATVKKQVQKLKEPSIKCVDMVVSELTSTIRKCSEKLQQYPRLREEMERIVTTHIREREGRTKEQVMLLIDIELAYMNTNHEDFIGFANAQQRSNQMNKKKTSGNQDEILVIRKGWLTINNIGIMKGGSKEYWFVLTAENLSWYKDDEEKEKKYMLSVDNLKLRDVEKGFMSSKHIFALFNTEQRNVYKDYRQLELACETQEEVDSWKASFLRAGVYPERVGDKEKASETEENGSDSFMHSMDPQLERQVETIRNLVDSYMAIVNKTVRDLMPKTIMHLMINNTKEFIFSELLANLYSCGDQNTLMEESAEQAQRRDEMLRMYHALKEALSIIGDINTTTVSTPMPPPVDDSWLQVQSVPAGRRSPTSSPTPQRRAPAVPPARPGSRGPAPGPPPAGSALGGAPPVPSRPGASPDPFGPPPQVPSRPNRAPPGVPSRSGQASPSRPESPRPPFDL
dynamin I (native, from rat brain synaptosomes; total pool) (rat), sequence (P21575 whole entry): as above
amphiphysin I (native, from rat brain lysate) (rat), sequence (O08838 whole entry): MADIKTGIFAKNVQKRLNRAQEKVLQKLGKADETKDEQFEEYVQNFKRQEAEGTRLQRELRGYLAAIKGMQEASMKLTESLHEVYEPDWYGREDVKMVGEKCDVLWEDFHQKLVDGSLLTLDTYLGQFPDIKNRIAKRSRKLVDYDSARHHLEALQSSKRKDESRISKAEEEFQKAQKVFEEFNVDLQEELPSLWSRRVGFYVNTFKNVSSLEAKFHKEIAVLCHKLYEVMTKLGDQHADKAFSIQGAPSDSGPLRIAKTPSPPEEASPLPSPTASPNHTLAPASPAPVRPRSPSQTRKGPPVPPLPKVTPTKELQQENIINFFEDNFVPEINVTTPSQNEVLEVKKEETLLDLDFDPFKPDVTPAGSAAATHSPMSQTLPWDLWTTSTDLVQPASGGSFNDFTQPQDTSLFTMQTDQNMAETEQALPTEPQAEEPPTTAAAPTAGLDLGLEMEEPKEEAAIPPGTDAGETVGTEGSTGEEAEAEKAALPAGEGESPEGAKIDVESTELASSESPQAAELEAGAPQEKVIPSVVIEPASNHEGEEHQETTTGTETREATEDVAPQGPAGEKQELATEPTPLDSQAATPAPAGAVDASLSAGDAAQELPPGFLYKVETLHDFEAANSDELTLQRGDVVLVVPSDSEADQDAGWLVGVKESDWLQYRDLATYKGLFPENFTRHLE
GST-EndoI-SH3, sequence (O35179 290-349): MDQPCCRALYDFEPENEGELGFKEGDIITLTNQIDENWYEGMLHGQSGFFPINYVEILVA

For the substance “full-length GST-fusion protein of syndapin I (SdpnI-FL)”, the binding to phospho-dynamin I relative to the total dynamin I bound to the beads (% of AmphI-SH3 control) in assay [1] was 56.

In turn, DynI783-796 peptide gave a fold higher peptide concentration needed for inhibition in assay [2] of 10 fold.

“full-length GST-fusion protein of endophilin I (EndoI-FL)” registered a binding to phospho-dynamin I relative to the total dynamin I bound to the beads (% of AmphI-SH3 control) in assay [1] of 91.

As to GST-EndoI-SH3, the percent of synaptosomal dynamin I extracted in assay [3] is above 95%.

GST-AmphI-SH3: the residual dynamin recovered in a second sequential pull-down in assay [4] was below 1%.
